The data set concerns HPPD polypeptides (wild-type SEQ ID NO:1 and mutants). The protocol: For the generation of crude HPPD polypeptide extract in micro titer plates (MTP) for the determination of residual activity in inhibition assays, cells were grown in 40 or 150 μl LB medium containing 1% Glucose (Merck, Darmstadt, Germany) and 100 μg/ml ampicillin in a standard 96 well plate (Thermo Fisher Scientific, Waltham, USA) incubated for about 18 h in a humidity incubator at 37° C.
30 μl of this starter culture were added to 600 μl LB medium containing 100 μg/ml ampicillin and 150 mM Hepes (Merck, Darmstadt, Germany) as inoculum for the expression culture in 96 well plates (2 ml deep wells; HJ Bioanalytik, Erkelenz, Germany) The plates were sealed by an aluminium foil, and cells were incubated for 5 h at 37° C. on a plate shaker at 750 rpm. The expression was induced by addition of IPTG in a final concentration of 1 mM followed by further sealed incubation for about 18 h at 30° C. on a plate shaker at 750 rpm.
Cells were harvested by centrifugation at 4° C., 2500 g for 15 min discarding the supernatant. Cell pellets were stored at −80° C. and lysed in 250 μl 1× BugBuster® (Merck, Darmstadt, Germany) in 140 mM Tris (pH 7.8), with 1:25000 diluted BNase® (Qiagen, Hilden, Germany) by incubation of the resuspended cells for 30 min at 4° C. and 1000 rpm. Lysates were clarified by centrifugation for 15 min at 4° C., 2500 g, and 150 μl supernatant were transferred in standard 96 well plate (Thermo Fisher Scientific, Waltham, USA) for subsequent testing in quadruplets.
The activity of HPPD polypeptides was determined in absence or presence of HPPD inhibitors using the coupled HPPD activity assay (FIG. 1).
For the determination of the residual activity, the apparent kinetic constant (kapp) of the determined substrate conversion was measured as kinetic changes in absorbance at 320 nm in a coupled assay, in that homogentisate (HGA) formed by HPPD from HPP is directly converted into the well absorbing molecule maleylacetoacetate (MAA) by a second enzyme homogentisate dioxygenase (HGD), applied in excess uniformly in all assays (see FIG. 1). The measurements were performed in 384 micro titer plates (Greiner Bio-One GmbH, Frickenhausen, Germany) by plate readers (Tecan infinite M1000 or M1000PRO, Tecan, Männedorf, Switzerland). The kcat/kM ratio of an enzymatic activity is proportional to the apparent kinetic constant kapp and is proportional to kcat/kM*[E] ([E]=enzyme concentration). […] As both kapp measurements in the presence and absence of inhibitor were performed by use of the identical enzyme sample, crude or purified, and thereby at the same enzyme concentration, the enzyme concentration eliminates from the calculation of residual activity and the ratio of both kapp directly indicates the change of kM due to the inhibition.

The mark [1] stands for this setting: in the presence of Cmpd. 1, 15 μM inhibitor, high substrate concentration, kapp normalized to kapp without inhibitor.
[2] abbreviates: in the presence of Cmpd. 1, 15 μM inhibitor, high substrate concentration, total change in signal normalized to no inhibitor.
Setting [3] is: in the presence of Cmpd. 2, 15 μM inhibitor, high substrate concentration, kapp normalized to kapp without inhibitor.
[4] abbreviates: in the presence of Cmpd. 2, 15 μM inhibitor, high substrate concentration, total change in signal normalized to no inhibitor.
Setting [5] is: in the presence of diketonitrile (DKN), 60 μM inhibitor, high substrate concentration, kapp normalized to kapp without inhibitor.
Where [6] appears, read: in the presence of diketonitrile (DKN), 60 μM inhibitor, high substrate concentration, total change in signal normalized to no inhibitor.
Where [7] appears, read: in the presence of mesotrione (MST), 60 μM inhibitor, high substrate concentration, kapp normalized to kapp without inhibitor.
The mark [8] stands for this setting: in the presence of mesotrione (MST), 60 μM inhibitor, high substrate concentration, total change in signal normalized to no inhibitor.
The mark [9] stands for this setting: kapp in presence of 50 μM Cmpd. 1, normalised to kapp without inhibitor, low substrate concentration.
Setting [10] is: total change in signal in presence of 50 μM Cmpd. 1, normalised to that without inhibitor, low substrate concentration.

Like-named read-outs stand apart in the source and are kept apart here.

On to `CS(=O)(=O)c1ccc(C(=O)C2C(=O)CCCC2=O)c([N+](=O)[O-])c1` [mesotrione, 2-[4-(methylsulfonyl)-2-nitrobenzoyl]-1,3-cyclohexanedione, reference compound], for which the Residual activity by setting is: under setting [1], 9%; under setting [3], 16%; under setting [5], 17%; under setting [7], 13%. In addition, the Residual turnover under setting [2] turned out to be 9%, the Residual turnover under setting [4] came to 22%, the Residual turnover under setting [6] is reported as 17% and the Residual turnover under setting [8] is on record as 17%.

B1: 16 (protein)
chain: MADLYENPMGLMGFEFIEFASPTPGTLEPIFEIMGFTKVATHRSKNVHLYRQGEINLILNNEPNSIASYFAAEHGPSVCGMAFRVKDSQKAYNRALELGAQPIHIDTGPMELNLPAIKGIGGAPLYLIDRFGEGSSIYDIDFVYLEGVERNPVGAGLKVIDHLTHNVYRGRMVYWANFYEKLFNFREARYFDIKGEYTGLTSKAMSAPDGMIRIPLNEESSKGAGQIEEFLMQFNGEGIQHVAFLTDDLVKTWDALKKIGMRFMTAPSDSYYEMLEGRLPDHGEPVDQLQARGILLDGSSVEGDKRLLLQIFSETLMGPVFFEFIQRKGDDGFGPDSFKVLFESKERDQVRRGVLTAD
modifications: mutant HPPD polypeptide
Consider B1, for which the Residual activity runs as follows: under setting [1], 45%; under setting [3], 94%; under setting [5], “n.i. (no inhibition was observed under the given conditions)”; under setting [7], 88%. The Residual turnover is, setting by setting: under setting [2], 69%; under setting [4], 94%; under setting [6], “n.i”; under setting [8], 92%.

B2: 17 (protein)
chain: MADLYENPMGLMGFEFIEFASPTPGTLEPIFEIMGFTKVATHRSKNVHLYRQGEINLILNNEPNSIASYFAAEHGPSVCGMAFRVKDSQKAYNRALELGAQPIHIDTGPMELNLPAIKGIGGAPLYLIDRFGEGSSIYDIDFVYLEGVERNPVGAGLKVIDHLTHNVYRGRMVYWANFYEKLFNFREARYFDIKGEYTGLTSKAMSAPDGMIRIPLNEESSKGAGQIEEFLMQFNGEGIQHVAFLTDDLVKTWDALKKIGMRFMTAPGDEYYEMLEGRLPDHGEPVDQLQARGILLDGSSVEGDKRLLLQIFSETLMGPVFFEFIQRKGDDGFGPDSFKVLFESVERDQVRRGVLTAD
modifications: mutant HPPD polypeptide
In the case of B2, the Residual activity by setting is: under setting [1], 43%; under setting [3], 90%; under setting [5], “n.i. (no inhibition was observed under the given conditions)”; under setting [7], 85%; under setting [9], 29%. For the same molecule, the Residual turnover runs as follows: under setting [2], 68%; under setting [4], 90%; under setting [6], 95%; under setting [8], 90%; under setting [10], 54%.

B3: 33 (protein)
chain: MADLYENPMGLMGFEFIEFASPTPGTLEPIFEIMGFTKVATHRSKNVHLYRQGEINLILNNEPNSIASYFAAEHGPSVCGMAFRVKDSQKAYNRALELGAQPIHIDTGPMELNLPAIKGIGGAPLYLIDRFGEGSSIYDIDFVYLEGVERNPVGAGLKVIDHLTHNVYRGRMVYWANFYEKLFNFREARYFDIKGEYTGLTSKAMSAPDGMIRIPLNEESSKGAGQIEEFLMQFNGEGIQHVAFLTDDLVKTWDALKKIGMRFMTAPGDEYYEMLEGRLPDHGEPVDQLQARGILLDGSSVEGDKRLLLQIFSETLMGPVFFEFIQRKGDDGFGPDSFKRLFESVERDQVRRGVLTAD
modifications: mutant HPPD polypeptide
Consider B3, for which, under setting [9], the Residual activity is reported as 40%. Also, the Residual turnover under setting [10] is given as 65%.

B4: 8 (protein)
chain: MADLYENPMGLMGFEFIEFASPTPGTLEPIFEIMGFTKVATHRSKNVHLYRQGEINLILNNEPNSIASYFAAEHGPSVCGMAFRVKDSQKAYNRALELGAQPIHIDTGPMELNLPAIKGIGGAPLYLIDRFGEGSSIYDIDFVYLEGVERNPVGAGLKVIDHLTHNVYRGRMVYWANFYEKLFNFREARYFDIKGEYTGLTSKAMSAPDGMIRIPLNEESSKGAGQIEEFLMQFNGEGIQHVAFLTDDLVKTWDALKKIGMRFMTAPPDTYYEMLEGRLPDHGEPVDQLQARGILLDGSSVEGDKRLLLQIFSETLMGPVFFEFIQRKGDDGFGPDSFKVLFESIERDQVRRGVLTAD
modifications: mutant HPPD polypeptide
For the molecule B4, the Residual activity is, setting by setting: under setting [1], 21%; under setting [3], 67%; under setting [5], 91%; under setting [7], 70%. In addition, the Residual turnover by setting is: under setting [2], 44%; under setting [4], 74%; under setting [6], 95%; under setting [8], 85%.

B5: 18 (protein)
chain: MADLYENPMGLMGFEFIEFASPTPGTLEPIFEIMGFTKVATHRSKNVHLYRQGEINLILNNEPNSIASYFAAEHGPSVCGMAFRVKDSQKAYNRALELGAQPIHIDTGPMELNLPAIKGIGGAPLYLIDRFGEGSSIYDIDFVYLEGVERNPVGAGLKVIDHLTHNVYRGRMVYWANFYEKLFNFREARYFDIKGEYTGLTSKAMSAPDGMIRIPLNEESSKGAGQIEEFLMQFNGEGIQHVAFLTDDLVKTWDALKKIGMRFRTAPPDTYYEMLEGRLPDHGEPVDQLQARGILLDGSSVEGDKRLLLQIFSETLMGPVFFEFIQRKGHDGFGPDSFKVLFESIERDQVRRGVLTAD
modifications: mutant HPPD polypeptide
Take B5: the Residual activity under setting [1] amounted to 67%, the Residual activity entry under setting [3] is “n.i. (no inhibition was observed under the given conditions)” and the Residual activity result under setting [5] is listed as “n.i. (no inhibition was observed under the given conditions)”. In addition, the Residual turnover runs as follows: under setting [2], 79%; under setting [4], “n.i”; under setting [6], “n.i”.

B6: 31 (protein)
chain: MADLYENPMGLMGFEFIEFASPTPGTLEPIFEIMGFTKVATHRSKNVHLYRQGEINLILNNEPNSIASYFAAEHGPSVCGMAFRVKDSQKAYNRALELGAQPIHIDTGPMELNLPAIKGIGGAPLYLIDRFGEGSSIYDIDFVYLEGVERNPVGAGLKVIDHLTHNVYRGRMVYWANFYEKLFNFREARYFDIKGEYTGLTSKAMSAPDGMIRIPLNEESSKGAGQIEEFLMQFNGEGIQHVAFLTDDLVKTWDALKKIGMRFMTAPGDEYYEMLEGRLPDHGEPVDQLQARGILLDGSSVEGDKRLLLQIFSETLMGPVFFEFIQRKGDDGFGPHSFKVLFESVERDQVRRGVLTAD
modifications: mutant HPPD polypeptide
For B6, the Residual activity under setting [1] was 40%; the Residual activity under setting [3] is 95%; the Residual activity entry under setting [5] was “n.i. (no inhibition was observed under the given conditions)”; the Residual activity under setting [7] stood at 83%; the Residual activity under setting [9] is 50%. Further, the Residual turnover under setting [2] is 67%; the Residual turnover result under setting [4] was “n.i”; the Residual turnover result under setting [6] was “n.i”; the Residual turnover entry under setting [8] is reported as “n.i”; the Residual turnover under setting [10] worked out at 81%.

For the origin of these results see patent US10597674B2, “HPPD variants and methods of use” (BASF Agricultural Solutions Seed, US LLC, priority 2015, dated 2020).
